15 sequences from the DeepSol protein solubility set can be followed below.

The data set is described as follows: soluble on expression in E. coli; label from the status in PepcDB or PDB records.
Turning to “MSLAIWAAGDTAGVATVVRTLRSAPRPPGAAMVVAPDGSVSGSVSGGCVEGAVYELAAEVAQTGIPRLEHYGVSDDTAFAVGLTCGGIIDVFVEPVSRATFPELGELADDIGAQRPVAIATVIAHPDERRVGRRLVIRPDTKSPVTGSLGSARADAAVIDDARGLLAVGRSEILEYGPDGQRRGEGMEVFVSSHAPRPRMLVFGAIDFAAALARQGSFLGYRVTVCDARAVFATPARFPTADDVVVAWPHRYLAAQAEAGGIDERTVICVLTHDPKFDVPVLEVALRLGVGYVGAMGSRKTHDDRMDRLRAAGLTDAELSRLSSPIGLDLGARTPEETAVSIAADIIARRWGGGGRPLADIAGRIHHDAQVAGEFKDYLTRHEGHHHHHH”, the “soluble on expression in E. coli” value was “soluble”.

Turning to “MSLAKELLIKNACVYDPLNGIEGEVMDIGVKDGKIVDPSEVDESKAKVIDAEGRLTMAGGVDIHAHVAGPKVNVGRIFRPEDSRRLQVAIKKLGTRSGTGFSVPSTTITGYLYAQMGYTTVMEAATPPLLTRHTHEEIRDTPILDEGAYTLMANNWILYEYIKEGELEKAAAYAAWLLRATKGFVIKMVNPGGTEAWGWGENVHSLDDPVPYFEITPAEIYQNYVKINEMLGLPHSIHIHPNLLGEPGNYEITTDSWDVIKKTGVEPNPEIGEREQVVHNTHVQFHSYGGDSWPTFESKAEEVAKYLNKNDHVTVDLGAVTLDETTTMTADGPLEWELQELTGFKWANYDVELETGSGVVPFIYSPKNPVHSVQWAIGLEIALLTENPWQVVISTDHPNAGPFIRYPRIIAWLMSEPYREEWIENVHPWVGQRAAIATIDREYTWTDITITTRAAPAKMLGLSDRIGHLGEGAYAHIAIYDIKPDEVDPSRDYEEVEKAMEQAWLVVKDGEIVVQEGVVVNEPVGRTYWVDVKVPEDLLEEVKKDLETKFRRYYSVNLGNYQVQDVYIPKEERIVIDARDRLSEGHHHHHH”, the “soluble on expression in E. coli” value is listed as “soluble”.

Consider “MSLAKIPVLEIFGPTIQGEGRVIGRKTMFVRTAGCDYRCSWCDSAFTWDGSAKGDIKLMTAEEIYDELKRIGGDLFNHVTISGGNPALIKGIQELVDLFQDKGIFSALETQGSKFQPWMTQIDDLTISPKPPSSTMTPDLKKLDEVITQCVPSSLNLKVVVFDDKDYDFAKMIHHRYPDIPFYLQVGNPYLSDSVDNHTEKLLERYEQLVDLVMQSNDMNHVYVLPQLHTLLWSNKKGVEGHHHHHH”, for which the “soluble on expression in E. coli” value is given as “soluble”.

In the case of “MSLAKLPVGGIWKARLVLNEMQWSPYIKVATFSADITLDVTDKNNGAIYLPAFGSATPRVDLNLRTQPLSTAPGGEVSGQANIDMCLYDGYNSNSPWLKVALSDLQTVAGRPADVFSLRRDGSSGTAAADRVDYRITLNYNNQPQTVNNGQDITLASVNSTLIRPVVMPGIAFPVICTPTPLTLNVLPFAKLSKAAGHFSGTLRVTLSADALAEGHHHHHH”, the “soluble on expression in E. coli” value was “not soluble”.

On to “MSLAKPFDAYISVTVKARGNGTVHLGPIHKRWSRLDMGQFLLGGSRFVDSQRQEFIYYFHPGDMKPPLNVYFSGYRTAEGFEGYYMMKRMNAPFLLIGDPRVEGGSFYIGSSEYEQGIINVIDETLEKLNFKSHELILSGLSMGSFGALYYGAQLNPQAIIVGKPLVNIGTIAEHMRLLRPEEFGTALDVLVSNEGDTSQASIQALNQKFWQTFQKKSLSQTVFAIAYMQHDDYDPHAFQELLPVLTAHQARVMNRSIPGRHNDDSEGHHHHHH”, for which the “soluble on expression in E. coli” value is “not soluble”.

Turning to “MSLAKSYNAGINIIPTPRSLEKREGSFKLSDGVSIGAITPEAKKIATYFAAKISLATGYDVKVEDKGEITLVLDSCATFSPEGYALDVESSRVQVTACSPRGLFYGMQSFLQLLPAEIESAGIVRDVDWEAPAANIIDSPRFAYRGIHMDPCRHFMTVEEVKKQIDVLSMFKINTIHWHLTDDQGWRIEIKQYPGLAEIGGRRIEGEGVEYGPFYYTQEEIKDIVSYAAERFITIIPELEIPGHELAAISAYPGLSCKGDPVTPRNIWGVEDIVMCPGKESVFTFLENVIDEMVALFPGTYFHIGGDECPKESWKSCPLCQKRILEEGIKPDGKHTSEQLLHTYVVERIGKYLARYDKKIIGWDEILEGKPDSTATIMSWRGDAGGISAALSGHDAIMSPGPNGLYLDYYQGDSKIEPIAIGGCSTLEKVYNYNPVPDTLVLIGKDHHIIGVQANNWSEYFYNNDIREYHMYPRSLALAEVAWTDAKRKNYVDFERRINNAYVRLDGHGVNYHIPLPEQPGGSCDHIAFTDSVSLEFTTSRPISLVYTLDGTEPGVSSEIYTSPLSFYQNGILKIASLLSSGKLSKVRTIQIEKQVLLPAVDVEGSFHGLNMEVTYGMFLNMQEFMKTGKSVDVSTDIRETGELTSFVPSTNSMRDVRQYAAVATGFIDIPENGEGHHHHHH”, the “soluble on expression in E. coli” value is “not soluble”.

In the case of “MSLAKTVLVTGASGFIGSHLVGRCLADGCRVKALVRKGNACIDSLRASGVEVIEGDVRDATAVDAAVRESDLVLHAAALTSDWGKMQEFIDINVGGTRNVCEASLRHGVGRLVHVSSFECFDHHLLGRIDEQTPYKARKQSYPDTKIGGTNEVWAAIKRGLSASILYPVWVYGPGDRTLFPLLADSILRRQLFFWARNAPMSMIYIDNLVDLTMLAASRPEAVGEAFMACDGEAITFEEVCRRVAVAIGSPVPSLHLPFGMVRSVAGVMEFVWRIAGSKKRPLLTRQAVDVLASRALADVSKARTMLGWQSHVPQEEGIRRTLEWLVTVDPARWKVKEGHHHHHH”, the “soluble on expression in E. coli” value is “soluble”.

In the case of “MSLALLLRVRRLRLDRAERAQGRQLLRVRAAAQEHTERQAAQRDYRDWRLAEEQRLFLACQAAMLDRRRLEAWQQQVGLLREKEAGLEQDCAEAAQRLEGERERLRQCRRELLERQRQLEKFAELERHVDAERQGLRERSEEGELEEFTRHETWPCSSLEHHHHHH”, the “soluble on expression in E. coli” value was “not soluble”.

Consider “MSLALVYSRALSGMNAPLVEVEAHLANGLPHFNIVGLPDMEVKESRDRVRAAIIQSGFEFPAKKITVNLAPADLPKESGRFDLPIAIGILAASGQVAPEKLEEYEFAGELALSGLLRPVRGALAMAWQGMQAKRAFVLPEENAGQAAVMRGITVYGARSLGEVAAHLNGIEPLAQTECQVPQMPFEHGGQPDLCDVKGQHTARLALEIAAAGGHSLLMMGPPGTGKSMLSQRLPGILPPLTEDELVEVWALRSLLPNHQQQLDSNRPFRSPHHSASAAAMVGGGSDPRPGEISLAHHGVLFLDELPEFDRKVLEVLREPLENGEIHISRAARQAVYPAKFQLVAAMNPCPCGYLGHPVKPCRCTPESVARYRSKISGPLLDRIDLTIEVPSLSAAELMQQEAGESSASVLERVIAARDKQYARQGKVNAALSVSELDTSARIQKEAQEALGGLLEKLSLSARSFHRIMRVARTLADLAGDEEVGRSHVMKAIGFRRAL”, for which the “soluble on expression in E. coli” value is recorded as “not soluble”.

In the case of “MSLANGIEFNQNPASVFNSNSLDFELESQQLTQKNSSNTSSPLINLQNELAMITSSSLSETIEGLSLGYRKGSARKEEEGTTIEKLLNEMQELLTLTDSDKIKELSLKNSGLLEQHDPTLAMFGNMPKGEIVALISSLLQSKFVKIELKKKYAKLLLDLLGEDDWELALLSWLGVGELNQEGIQKIKKLYEKAKDEDSENGASLLDWFMEIKDLPEREKHLKVIIRALSFDLSYMSSFEDKVRTSSIISDLCRIIIFLSLNNYTDIIAISIKKDKDVILNEMLSIIEHVWLTEDWLLESPSRVSIVEDKHVYYFHLLKEFFASLPDACFIDNEQRSNTLLMIGKVIDYKEDVMEGHHHHHH”, the “soluble on expression in E. coli” value is on record as “soluble”.

For the sequence “MSLANLKVNLYGMEFLNPIMTAAGPGAKDGALCQEAAKGGAGAICTKTISVLPADVPRPCMAKTNSGFLNTELWSELPKEQWIEEEYKKVKETGLPVIVSMGYSAEQIAEVAPLVKPYADAVELSTHYVGTDVAPIVNALKAAKAVLDVPVFMKMSPHTDIQTIAKAVEEAGADGLVMINSFGPCMAIDVNTGYPIMGSKAGYGWLSGAPIRPLAIRCIYEASQVVNIPIIGVGGITCGKDVAEMMMAGASAVQVCTEAILKGPSIYGKIAKELNEFLDENGYADVNEIKGLTHKKMAARGFRTHSVAPVVDEGHHHHHH”, the “soluble on expression in E. coli” value was “soluble”.

In the case of “MSLAPFTTNPRRFDPYKNFKFRVKWDGRYVAGISKVGALKRSTEVIEHREGGDPSTGRKSPGRTKYDAISMERGVTHDLDFEQWANKVWNFGAGLGSEVSLADFRKDLIIDVFNEAGQKVMSYQVFRCWVSEYQALPDLDANANAIAIQSMKLENEGWLRDVAVAEPAEPSFTIPAEGHHHHHH”, the “soluble on expression in E. coli” value was “soluble”.

Turning to “MSLAQAPHPERIYLSGTGIDNTKTWDFFCSAGQNSGKWKKIEVPCNWELQGFGEYTYGRWYTIKGQHPSDETGTYRYKFDAPKSWAGQRVKIFFDGVMTDAEIMINGKPAGEMHQGGFYRFNYDITELLNLGKKNQLEVKVAKESANRSINAAERKADWWLFGGIYRPVWLEVLPQIHMEHFVLNADHQGKLQAAVDMAGDAKGHEIIVSVRSLKDGKTVYTSNGQTTITHSISNSDKEQMISGEWASIIPWSTENPNLYVAKLELKNPEGKIVQTRETRIGFRTVEFFPQDGVYLNGTKLVVKGINRHSFSVDGGRTTSAALSRMDALLIKEMNMNAVRSHYPPDEHFLDMCDSLGLVYMDELAGWQNGYDSRVGAKLVKEMIERDVNHPCIILWSNGNEGGWNTQTDPLFAQYDRLQKRHMVHPWADFNDLDTHHYPTYLTGVARFTNGYKVFMPTEFMHAMYDQGGGAGLRDFWDRWCTNPLFAGGFIWVYCDEAPKRSDKGGILDSDKSNAPDGVVGPRREKEGSYYAIRAQWSPIQLKPLLITNHFDGRFLLTNEYTFTNLKDCRMTYKVLSCGTPLQGNAEAGKVIAEGKVQLPSINPGETGTARFELPDSFRKGDVLELEAFDREGKSICNWTYPIHLAKQYFERNLAQTTLTPAPQKAEARQTSDAIELKSSKVSITFDAATGMIRHIKSGETEVPFKDGPVAIGMKMRYEPSLSYTRHSSDGAIYCAKYKGAADSIVWRLTNEGLLYMDAILLNRGSGGGGFDDAFMDAQVFNLGLSFSYPEQNCSGMKWMGRGPYRVWKNRIPGTNYGIWHKDYNNTITGESFENLIYPEFKGYHANLYWATLEGEKTSFTVYSRNDGTFFRVFTPEEPAGRIKDTMPAFPEGDLSFLLDIPAICSFKPIEQQGPNSQPGNIRIKSGDEGLHLNLMFDFREGHHHHHH”, the “soluble on expression in E. coli” value was “soluble”.

“MSLAQTPVMDVGTKSYISHQEQKMTATVEQIESWIVDVPTIRPHKLSMTTMGCQSLVIVRLTRSDGICGIGEATTIGGLSYGVESPEAISSAITHYLTPLLKGQPADNLNALTARMNGAIKGNTFAKSAIETALLDAQGKALGLPVSALLGGALQTALPVLWTLASGDTAKDIAEGEKLLAEGRHRAFKLKIGARELATDLRHTRAIVEALGDRASIRVDVNQAWDAATGAKGCRELAAMGVDLIEQPVSAHDNAALVRLSQQIETAILADEAVATAYDGYQLAQQGFTGAYALKIAKAGGPNSVLALARVAQAAGIGLYGGTMLEGTVGTVASLHAWSTLPLQWGTEMFGPLLLKDDIVSVPLTFADGQVALPQTPGLGVELDEDKLHFYTRQEGHHHHHH”: the “soluble on expression in E. coli” value is on record as “soluble”.

“MSLARPNSKASIGTVFQDRAARYGDRVFLKFGDQQLTYRDANATANRYAAVLAARGVGPGDVVGIMLRNSPSTVLAMLATVKCGAIAGMLNYHQRGEVLAHSLGLLDAKVLIAESDLVSAVAECGASRGRVAGDVLTVEDVERFATTAPATNPASASAVQAKDTAFYIFTSGTTGFPKASVMTHHRWLRALAVFGGMGLRLKGSDTLYSCLPLYHNNALTVAVSSVINSGATLALGKSFSASRFWDEVIANRATAFVYIGEICRYLLNQPAKPTDRAHQVRVICGNGLRPEIWDEFTTRFGVARVCEFYAASEGNSAFINIFNVPRTAGVSPMPLAFVEYDLDTGDPLRDASGRVRRVPDGEPGLLLSRVNRLQPFDGYTDPVASEKKLVRNAFRDGDCWFNTGDVMSPQGMGHAAFVDRLGDTFRWKGENVATTQVEAALASDQTVEECTVYGVQIPRTGGRAGMAAITLRAGAEFDGQALARTVYGHLPGYALPLFVRVVGSLAHTTTFKSRKVELRNQEGHHHHHH”: the “soluble on expression in E. coli” value is reported as “not soluble”.
